Data published in the supplement of paper PMC10201428.
± gives the standard deviation of the averaged measurements.

These sequences were tested on VchCAST RNA-guided transposition machinery (E. coli BL21(DE3) host, lacZ target) (assay: relative integration efficiency (T-RL orientation) vs wild-type transposon end (log2 (normalized fold change)); transposon end mutated: right end (5 bp flank + 75 bp right end); higher = more efficient transposition).
Procedure, shortened: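 Each barcoded pool, 1549 left-end or 1849 right-end transposon variants in a pUC57 mini-transposon donor, went into E. coli BL21(DE3) with a T7-driven effector plasmid (CRISPR array, tniQ-cas8-cas7-cas6, tnsA-tnsB-tnsC). Plates contained 0.1 mM IPTG and were held at 37°C for 18 h. Input plasmids and genomic integration junctions were PCR-amplified and read by Illumina sequencing, with two biological output replicates and four reference barcodes. Relative integration efficiency is the fold change of output over input barcode abundance, normalised to the reference barcodes and log-transformed.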

Question: With “ACATTTGTTGATACAACCATAAAATGATAATTAATAATCACCCATAAATTGATAATTATCACACCCATAAATTGATATTGCCTCTGATCATAGTCAGACCAACATTGCTACGACCCGTATTCGCACC” as the sequence, how does the “relative integration efficiency (log2)” value read?
Answer: -2.77 ± 0.17

Question: How did the “relative integration efficiency (log2)” value turn out when “ACATTTGTTGATACAACCATAAAATGATAATTACACCCATAAATTGATAATTATCACACCCATAAATTGATATTGCCTCTGTTGACAGCTAGCTCAGTCCTAGGTATAATGCTAGCCGCACCGACAC” was run?
Answer: -0.0954 ± 0.038

Question: “ACATTTGTTGATACAACCATAAAATGAATATTACACCCATAAATTGATAATTATCACACCCATAAATTGATATTGCCTCTGATCATAGTCAGACCAACATTGCTACGACCCGTATTCGCACCGACAC” was tested. Which “relative integration efficiency (log2)” value did it give?
Answer: -0.772 ± 0.072

Question: Which “relative integration efficiency (log2)” value does the source give for “ACATTTGTTGATACAACCATAAAATGAGAATTACACCCATAAATTGAGAATTATCACACCCATAAATTGAGATTGCCTCTGATCATAGTCAGACCAACATTGCTACGACCCGTATTCGCACCGACAC” here?
Answer: -1.04 ± 0.13

Question: For “ACATTTGTTGATACAACCATAAGTTGATATTTTCACCCATAAATTGATAATTATCACAACCATAAAGTGATATTTACTCTGATCATAGTCAGACCAACATTGCTACGACCCGTATTCGCACCGACAC”, which “relative integration efficiency (log2)” value is on record?
Answer: -0.345 ± 0.068

Question: Which “relative integration efficiency (log2)” value does the source give for “ACATTTGTTGATACAACCATAAAATGATAATTAATAATTATTTATAATCAGCAACTTAACACCCATAAATTGATAATTATCACACCCATAAATTGATATTGCCTCTGATCATAGTCAGACCAACATT” here?
Answer: -3.62 ± 0.28

Question: With “ACATTTGTTGATACAACCATAAAATGATAATTACACCCATAAATTGATAATTATCACACCCATAAATTGATATTGCCTCTGATCATAGTCAGACAACCATAAAATGATAATTACCAAGCACCGACAC” as the sequence, how does the “relative integration efficiency (log2)” value read?
Answer: -0.231 ± 0.065

Question: How did the “relative integration efficiency (log2)” value turn out when “ACATTTGTTCATACAACCCTAAAATGATAATTACACCCATAAATTGATAATTATCACACCCAATTTAACTATAACGCTCTGATCATAGTCAGACCAACATTGCTACGACCCGTATTCGCACCGACAC” was run?
Answer: -2.24 ± 0.22

Question: Which “relative integration efficiency (log2)” value does the source give for “ACATTTGTTGATACAACCATATAATGATAATAACACCAATAAAATGATAATTATCACACCCAATTTAACTATAACGCTCTGATCATAGTCAGACCAACATTGCTACGACCCGTATTCGCACCGACAC” here?
Answer: -1.09 ± 0.33

Question: “ACATTTGTTGATACAACACGCAAATGATAATTACACCCATAAATTGATAATTATCACACCCATAAATTGATATTGCCTCTGATCATAGTCAGACCAACATTGCTACGACCCGTATTCGCACCGACAC” was tested. Which “relative integration efficiency (log2)” value did it give?
Answer: -4.368 ± 0.0069

Question: Which “relative integration efficiency (log2)” value does the source give for “ACATTTGGGGATACAACCATAAAATGATAATTACACCCATAAATTGATAATTATCACACCCATAAATTGATATTGCCTCTGATCATAGTCAGACCAACATTGCTACGACCCGTATTCGCACCGACAC” here?
Answer: -6.43 ± 0.081

Question: “ACATTTGTTGATACAACCATAAAATCATCATTACCCCCATAAATTGATAATTATCCCACCCAATTTAACTATAACGCTCTGATCATAGTCAGACCAACATTGCTACGACCCGTATTCGCACCGACAC” was tested. Which “relative integration efficiency (log2)” value did it give?
Answer: -3.815 ± 0.027

Question: With “ACATTTGTTGATACAACCATAAAATGATAATTACAACCATAAGTTGATATTTTTCACAACCATAAAGTGATATTTACTCTGATCATAGTCAGACCAACATTGCTACGACCCGTATTCGCACCGACAC” as the sequence, how does the “relative integration efficiency (log2)” value read?
Answer: 0.274 ± 0.2

Question: With “ACATTTGTTGATACAACCATAAAATGATAATTACTCTGATCACCCATAAATTGATAATTATCACACCCATAAATTGATATTGCCATAGTCAGACCAACATTGCTACGACCCGTATTCGCACCGACAC” as the sequence, how does the “relative integration efficiency (log2)” value read?
Answer: -4.39 ± 0.071

Question: How did the “relative integration efficiency (log2)” value turn out when “ACATTTGTTGATACACCCATAAATTGATAATTACACCCATAAATTGATAATTATCACAACCATAAAATGATAATTACTCTGATCATAGTCAGACCAACATTGCTACGACCCGTATTCGCACCGACAC” was run?
Answer: -0.366 ± 0.2

Question: For “ACATTTGTTGATACAACCATAAAATGATATAATCACCCATAAATTGATATAATTCACACCCATAAATTGATAAACGCTCTGATCATAGTCAGACCAACATTGCTACGACCCGTATTCGCACCGACAC”, which “relative integration efficiency (log2)” value is on record?
Answer: -1.01 ± 0.15

Question: “ACATTTGTTGATACAACCATAAAATGATAATTACACCCATAAATTGATACGGCGACACAAACGCCCGGTCGCGGTAAGAGGATCATAGTCAGACCAACATTGCTACGACCCGTATTCGCACCGACAC” was tested. Which “relative integration efficiency (log2)” value did it give?
Answer: -0.726 ± 0.13

Question: How did the “relative integration efficiency (log2)” value turn out when “ACATTTGTTGATACAACCATAAAATGATAATTACACCCATAAATTGATACGGCTCACACCCATAAATTGATATTGCCTCTGATCATAGTCAGACCAACATTGCTACGACCCGTATTCGCACCGACAC” was run?
Answer: -0.622 ± 0.074

Question: With “ACATTTGTTGATACAACCATAAAATGATAATTACACCCATAAATTGATAATTATCACACCCATAAATTGATATTGCCTCTGATAACTTCGTATAGCATACATTATACGAAGTTATTCGCACCGACAC” as the sequence, how does the “relative integration efficiency (log2)” value read?
Answer: -3.13 ± 0.076

Question: With “ACATTTGTTGATACAACCATAAAATGATAATTAATAATTATTTATAATCAGCAACTTAACCACCCATAAATTGATAATTATCACACCCATAAATTGATATTGCCTCTGATCATAGTCAGACCAACAT” as the sequence, how does the “relative integration efficiency (log2)” value read?
Answer: -3.17 ± 0.073

Question: Which “relative integration efficiency (log2)” value does the source give for “ACATTTGTTGATACAACCATAAAATGATAATTACACCCATAAATTGATAATTATCACACCCATAAATTGATATTGCCTCTGATCAGGCAGTGAGCGCAACGCAATTTAGTCAGACCAGCACCGACAC” here?
Answer: -0.283 ± 0.16

Question: For “ACATTTGTGGATACAACCATAAAATGATAATTACACCCATAAATGGATCATTATCACCCCCAATTTAACTATAACGCTCTGATCATAGTCAGACCAACATTGCTACGACCCGTATTCGCACCGACAC”, which “relative integration efficiency (log2)” value is on record?
Answer: -1.28 ± 0.28

Question: Which “relative integration efficiency (log2)” value does the source give for “ACATTTGTTGATACAACCAATAAATGATAATTACACCCATAAATTGATAATTGTGACACCGAATTTAACTATAACGCTCTGATCATAGTCAGACCAACATTGCTACGACCCGTATTCGCACCGACAC” here?
Answer: -1.29 ± 0.29

Question: How did the “relative integration efficiency (log2)” value turn out when “ACATTTGTTCATACAACCATAAAACGATAATTACACCCATAAATGGATCATTATCACACCCAATTTAACTATAACGCTCTGATCATAGTCAGACCAACATTGCTACGACCCGTATTCGCACCGACAC” was run?
Answer: -2.16 ± 0.3

Question: With “ACATTTGTTGATACAACCATCAAATGGTAATTCCACCCATAAATTGATAATTATCACACCCAATTTAACTATAACGCTCTGATCATAGTCAGACCAACATTGCTACGACCCGTATTCGCACCGACAC” as the sequence, how does the “relative integration efficiency (log2)” value read?
Answer: -2.06 ± 0.2
